For assay [1], the target named is full-length recombinant human RAD51 protein, N-terminal 6xHis-tagged (human) (UniProt Q06609). The assay is described as follows: static light scattering.
Assay [2] has the same target. In words: MST.
Assay [3] shares this target.
For assay [4], the target named is T1, full-length recombinant human RAD51 protein, N-terminal 6xHis-tagged (human), Q06609.
T1 chain: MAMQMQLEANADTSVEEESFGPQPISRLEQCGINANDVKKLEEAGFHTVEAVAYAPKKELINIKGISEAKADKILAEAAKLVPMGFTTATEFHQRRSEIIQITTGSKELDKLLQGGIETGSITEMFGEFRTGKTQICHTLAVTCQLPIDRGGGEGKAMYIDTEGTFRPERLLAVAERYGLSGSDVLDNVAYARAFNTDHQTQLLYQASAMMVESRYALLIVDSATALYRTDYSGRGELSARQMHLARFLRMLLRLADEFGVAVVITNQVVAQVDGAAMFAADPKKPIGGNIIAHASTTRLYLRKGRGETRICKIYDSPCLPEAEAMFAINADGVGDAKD
The assay is described as follows: static light scattering. The following applies: remark: other sources report otherwise.

With “BRC4 peptide (fourth BRC repeat of the BRCA2 protein)”, the EC50 in assay [1] lay in the range of 4 to 5 µM; in assay [2], 60 to 80 nM.

For “Myristoylated BRC4 (BRC4-ss-Myr) (peptide)”, the IC50 of inhibition of homologous recombination in BxPC-3 cells in assay [3] stood at 5 µM.

B1: full-length recombinant human RAD51 protein, N-terminal 6xHis-tagged, Q06609 1-339 (natural protein)
chain: T1 chain
For the molecule B1, in assay [4], the stoichiometry N was 40 protomers.

By EC50 is commonly meant the concentration at which the effect is half-maximal. As a reminder, the stoichiometry N is a count of units in the complex or per binding partner.

Values taken from paper doi:10.1101/2021.02.03.429564.
